{"source": "paper PMC3307221", "about": "(Analytical Chemistry, 2012)", "binders": {"B1": {"name": "M18 scFv (scFv, V domains shown)", "VH": "EVQLQQSGPELVKPGASVKISCKDSGYAFNSSWMNWVKQRPGQGLEWIGRIYPGDGDSNYNGKFEGKAILTADKSSSTAYMQLSSLTSVDSAVYFCARSGLLRYAMDYWGQGTSVTVSS", "VL": "DIQMTQTTSSLSASLGDRVTVSCRASQDIRNYLNWYQQKPDGTVKFLIYYTSRLQPGVPSRFSGSGSGTDYSLTINNLEQEDIGTYFCQQGNTPPWTFGGGTKLEIK"}}, "target": "protective antigen of anthrax (Bacillus anthracis, strain , UniProt P13423)", "sequence (P13423 whole entry, looked up)": "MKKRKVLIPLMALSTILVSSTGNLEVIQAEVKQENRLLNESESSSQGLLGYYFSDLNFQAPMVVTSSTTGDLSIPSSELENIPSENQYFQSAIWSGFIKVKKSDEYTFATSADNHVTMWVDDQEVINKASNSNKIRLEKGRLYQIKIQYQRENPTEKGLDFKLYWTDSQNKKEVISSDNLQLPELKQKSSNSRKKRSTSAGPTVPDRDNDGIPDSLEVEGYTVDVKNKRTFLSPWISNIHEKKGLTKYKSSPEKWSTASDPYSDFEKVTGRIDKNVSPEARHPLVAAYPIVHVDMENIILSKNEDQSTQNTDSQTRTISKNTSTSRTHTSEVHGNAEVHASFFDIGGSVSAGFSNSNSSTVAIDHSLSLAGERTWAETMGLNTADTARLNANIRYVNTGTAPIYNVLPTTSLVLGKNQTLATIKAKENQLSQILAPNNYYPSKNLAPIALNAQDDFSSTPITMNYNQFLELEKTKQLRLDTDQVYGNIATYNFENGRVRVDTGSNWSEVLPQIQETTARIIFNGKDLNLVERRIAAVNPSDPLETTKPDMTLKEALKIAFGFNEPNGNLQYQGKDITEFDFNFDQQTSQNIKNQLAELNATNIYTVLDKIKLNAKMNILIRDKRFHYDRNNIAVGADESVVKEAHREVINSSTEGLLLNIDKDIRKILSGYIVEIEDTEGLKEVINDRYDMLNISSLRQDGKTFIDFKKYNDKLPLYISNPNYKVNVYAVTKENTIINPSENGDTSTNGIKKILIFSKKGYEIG", "assay": "SPR"}
{"binder": "B1", "values": [{"measurement": "koff", "result": 0.00011, "unit": "s⁻¹"}, {"measurement": "kon", "result": 597000, "unit": "M⁻¹ s⁻¹"}]}
